The labels stand for the following.
B1: B21 (antibody, V domains shown)
VH: EVKLEESGGGLVQPGGSMKLSCAASGFTFSDAWMDWVRQSPEKGLEWVAEIRNKANNHATYYAESVKGRFTISRDDSKSSVYLQMNSLRAEDTGIYYCTLFLTGHFDYWGQGTTLTVSS
VL: DIVMTQSQKFMSTSVGDRVSITCKASQNVRTAVAWYQQKPGQSPKALIYLASNRHTGVPDRFTGSGSGTDFTLTISNVQSEDLADYFCLQHWNYPLTFGSGTKLEIK
B2: B23 (antibody, V domains shown)
VH: EVKLEESGGGLVQPGGSMKLSCAASGFTFSDAWMDWVRQSPEKGLEWIAEIRNKANNHATYYAESVKGRFTISRDDSKSSVYLQMNSLRAEDTGIYYCTRGLTGPYFDYWGQGTTLTVSS
VL: DIVMTQSQKFMSTSVGDRVTITCKASQNVRTAVAWYQQKPGQSPKALIYLASNRHTGVPDRFTGSGSGTDFTLTISNVQSEDLADYFCLQHWNYPLTFGAGTKLELK
B3: B43 (antibody, V domains shown)
VH: DVQLQESGPGLVKPSQSLSLTCSVTGYSITSGYYWNWIRQSPGNKLEWMGYISYDGSNKYNPSLKNRISITRDTSKNQFFLKLNSVTTEDTAIYYCARWDKGAMDYWGQGTSVTVSS
VL: DIVMTQSQKFMSTSVGDRVSITCKASQNVRTAVAWYQQKPGQSPKALIYLASNRHTGVPDRFTGGGSGTDFTLTISNVQSEDLADYFCLQHWNYPLTFGAGTKLELK
B4: A16 (antibody, V domains shown)
VH: DVQLQESGPGLVKPSQSLSLTCSVTGYSITSGYYWNWIRQFPGNKLEWMGYISYDGSNNYNPSLKNRISITRDTSKNQFFLKLNSVTTEDTATYYCARFHYGSRPRYWYFDVWGTGTTVTVSS
VL: DIQMTQTTSSLSASLGDRVTISCSASQGIRNYLNWYQQKPDGTVKLLIYYTSSLHSGVPSRFSGSGSGTDYSLTISNLEPEDIATYYCQQYSKLPWTFGGGTKLEIK
B5: A11 (antibody, V domains shown)
VH: QVQLQQPGAELVKPGTSVKLSCKASGYTFTSYWMHWVKQRPGQGLEWIGMIHPNSGNTNYNEKFKSKATLTVDKSSSTAYMQLSSLTSEDSAVYYCADLGAWFAYWGQGTLVTVSA
VL: QIVLTQSPAIMSASPGEKVTMTCSASSSISYMHWYQQKPGTSPKRWIYDTSKLASGVPARFSGSGSGTSYSLTISSMEAEDAATYYCHQRSSYPWTFGGGTKLEIK
B6: B44 (antibody, V domains shown)
VH: QVQLQQPGAELVKPGASVKVSCKASGYTFTSYWMHWVKQRPGQGLEWIGRIHPSDSDTNYNQKFKGKATFTVDKSSSTAYMQLSSLTSEDSAVYYCAIGDGRDFDYWGQGTTLTVSS
VL: DVVLTQTPLSLPVNIGDQASISCKSTKSLLNSDGFTYLDWYLQKPGQSPQLLIYLVSNRFSGVPDRFSGSGSGTDFTLKISRVEAEDLGVYYCFQSNYLPLTFGSGTKLEIK
B7: B01 (antibody, V domains shown)
VH: QVQLQQPGAELVKPGASMKVSCKASGYTFTSYWMHWVKQRPGQGLEWIGRIHPSDSDTNYNQKFKGKATLTVDKSSSTAYMQLSSLTSEDSAVYYCAIGGGRDFDYWGQGTTLTVSS
VL: DVVLTQTPLSLPVNIGDQASISCKSTKSLLNSDGFTYLDWYLQKPGQSPQLLIYLFSNRFSGVPDRFSGSGSGTDFTLKISRVEAEDLGVYYCFQSNYLPWTFGGGTKLEIK
B8: A21 (antibody, V domains shown)
VH: QVQLQQSGAELVKPGASVKISCKASGYSFSDYWMNWVKQRPGKGLEWIGQIFPGDGDTNYNGKFKGKAALTADKSSSTAYMQLSSLTSEDSAVYFCARRELNYFDYWGQGTTLTVSS
VL: QIVLTQSPAIMSASPGEKVTMTCSASSSVSYMFWYQQKPGSSPRLLIYDTSNLASGVPVRFSGSGSGTSYSLTVSRMEAEDAATYYCQQWSSYPLTFGSGTKLEIK
B9: B47 (antibody, V domains shown)
VH: EVQLQQSGPELVKPGASVKISCKASDYSFTGYYMNWVKQSPEKSLEWIGEINPSTGGTTYNQKFKAKATLTVDKSSSTAYMQLKSLTSEDSAVYYCARGSGAYWGQGTLVTVSA
VL: DIVLTQSPASLAVSLGQRATISCRASESVEYYGTSLMQWYQQKPGQPPKLLIYAASNVESGVPARFSGSGSGTDFSLNIHPVEEDDIAMYFCQQSRKVPYTFGGGTKLEIK
B10: B08 (antibody, V domains shown)
VH: EVQLQQSGPELVKPGASVKISCKASGYSFTGYYMNWVKQSPEKSLEWIGEINPSTGGTTYNQKFKAKATLTVDKSSSTAYMQLKSLTSEDSAVYYCARGGADVWGTGTTVTVSS
VL: DIVLTQSPASLAVSLGQRATISCRASESVEYYGTSLMQWYQQKPGQPPKLLIYAASNVESGVPARFSGSGSGTDFSLNIHPVEEDDIAMYFCQQSRKVPWTFGGGTKLEIK
B11: B26 (antibody, V domains shown)
VH: QVQLQQPGAELVKPGASVKMSCKASGYTFTSYWITWVKQRPGQGLEWIGDIYPGSGSTNYNEKFKSKATLTVDTSSSTAYMQLSSLTSEDSAVYYCARDWDYGSSYWYFDVWGTGTTVTVSS
VL: DIKMTQSPSSMYASLGERVTITCKASQDIKSYLSWYQQKPWKSPKTLIYYATSLADGVPSRFSGSGSGQDYSLTISSLASDDTATYYCLQHGESPYTFGGGTKLEIK
B12: B02 (antibody, V domains shown)
VH: QVQLQQPGAELVKPGASVKVSCKASGYTFTSYWMHWVKQRPGQGLEWIGRIHPSDSDTNYNQKFKGKATLTVDKSSSTAYMQLSSLTSEDSAVYYCAMDWDVDYWGQGTTLTVSS
VL: QIVLTQSPALMSASPGEKVTMTCSASSSVSYMYWYQQKPRSSPKPWIYLTSNLASGVPARFSGSGSGTSYSLTISSMEAEDAATYYCQQWSSNPFTFGSGTKLEIK
B13: B42 (antibody, V domains shown)
VH: QVQLQQPGAELVKPGASVKVSCKASGYTFTSYWMHWVKQRPGQGLEWIGRIHPSDSDTNYNQKFKDKATLTVDKSSSTAYMQLSSLTSEDSAVYFCVIDHYFDYWGQGTTLTVSS
VL: DIVMSQSPSSLAVSAGEKVTMSCKSSQSLLNSRTRKNYLAWYQQKPGQSPKLLIYWASTRESGVPDRFTGSGSGTDFTLTISSVQAEDLAVYYCKQSYNLYTFGGGTKLEIK
B14: B45 (antibody)
chain 1: QVQLQQPGAELVKPGASVKVSCKASGYTFTSYWMHWVKQRPGQGLEWIGRIHPSDSDTNYNQKFKGKATLTVDKSSSTAYMQLCSLTSEDCAVYYCAIWEDYGVFYAMDYWGQGTSVTVSS
chain 2: DIVMTQSQKFMSTSVGDRVSVTCKASQNVGTNVAWYQQKPGQSPKALIYSASYRYSGVPDRFTGSGSGTDFTLTISNVQSEDLAEYFCQQYNSYPLTFGAGAKLELK
B15: A49 (antibody, V domains shown)
VH: QVQLQQSGSELARPGASVNLSCKASGYTFTSYGVSWVKQRTGQGLEWIGDIYPRSGNSYYNEKFKGKATLTADKSSSTAYMELRSLTSEDSAVYFCAREVYGYEFDYWGQGTTLTVSS
VL: DIQMTQTTSSLSASLGDRVTISCRASQDISNYLNWYQQKPDGTVQLLIYYTSRLHSGVPSRFSGSGSGTDYSLTISNLEQEDIATYFCQQGNTLPRTFGGGTKLEIK
B16: B04 (antibody, V domains shown)
VH: QVQLKQSGAELVRPGASVKLSCKASGYTFTDYYITWVKQRPGQGLEWIARICPGSGNTFYNEKFMGKATLTAEKSSSTAYMQLSSLTSEDSAVYFCARRGTLLYAFAYWGQGTLVTVSA
VL: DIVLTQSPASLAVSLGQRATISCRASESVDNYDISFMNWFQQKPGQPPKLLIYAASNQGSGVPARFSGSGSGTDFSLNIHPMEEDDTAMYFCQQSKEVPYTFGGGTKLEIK

For orientation: Kd means the equilibrium constant for the complex coming apart. A lower Kd goes with higher affinity.

For this assay, the target named is SARS-CoV-2 spike RBD (WT) (Severe acute respiratory syndrome …, UniProt P0DTC2). As to the kind of experiment: BLI.
B1 returned a Kd of 17.2 nM.

B2 yielded a Kd of 211 nM.

With B3, binding was characterised by a dissociation constant (Kd) of 40.7 nM.

Regarding B4, the Kd is 140 nM.

For the molecule B5, the Kd was found to be 7620 nM. This Kd is about 54-fold higher than that of the molecule before.

B6 came in with a Kd of 123 nM.

Regarding B7, binding was put at a Kd of 18.7 nM.

As for B8, the Kd is 138 nM.

For B9, the affinity, expressed as Kd, was 26.5 nM.

With B10, the affinity, expressed as Kd, was 87.2 nM. Against the preceding molecule, the Kd is about 3.3-fold higher.

Turning to B11, the Kd turned out to be 104 nM.

Molecule B12 yielded a Kd of 580 nM. Against the preceding molecule, the Kd is about 5.6-fold higher.

B13: binding was characterised by a dissociation constant (Kd) of 91.8 nM. This Kd lies about 6.3-fold lower than the previous one.

Molecule B14 displayed a Kd of 837 nM.

As to B15, the Kd came to 482 nM. Compared with the last molecule, the Kd is about 1.7-fold lower.

In turn, B16 came in with a Kd of 100 nM.
